“And” between values parts separate entries of the source, which are not always exact repeats. Identical values can stand only once.
T1: human BCMA (human, UniProt Q02223 1-184)
T1 construct: whole, on cells; also called hBCMA; TNFRSF17
T1 sequence (looked up): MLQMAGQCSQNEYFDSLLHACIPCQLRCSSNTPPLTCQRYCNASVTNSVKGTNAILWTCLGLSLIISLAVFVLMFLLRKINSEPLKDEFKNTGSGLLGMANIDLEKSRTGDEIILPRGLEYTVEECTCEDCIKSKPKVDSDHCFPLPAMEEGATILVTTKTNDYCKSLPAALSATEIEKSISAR

B1: PR002309 (bispecific antibody, human IgG1, lambda, L234A L235A)
light: QAVVTQEPSLTVSPGGTVTLTCRSSTGAVTTSNYANWVQQKPGQAPRGLIGGTNKRAPWTPARFSGSLLGDKAALTLLGAQPEDEAEYFCALWYSNLWVFGGGTKLTVLGQPKAAPSVTLFPPSSEELQANKATLVCLISDFYPGAVTVAWKADSSPVKAGVETTTPSKQSNNKYAASSYLSLTPEQWKSHRSYSCQVTHEGSTVEKTVAPTECS
heavy: EVQLLESGGGLVQPGGSLRLSCAASGFTFSTYAMNWVRQAPGKGLEWVSRIRSKYNNYATYYADSVKDRFTISRDDSKSTLYLQMNSLRAEDTAVYYCVRHGNFGNSYVSWFAYWGQGTLVTVSSASTKGPSVFPLAPSSKSTSGGTAALGCLVKDYFPEPVTVSWNSGALTSGVHTFPAVLQSSGLYSLSSVVTVPSSSLGTQTYICNVNHKPSNTKVDKKVEPKSCDKTHTCPPCPAPEAAGGPSVFLFPPKPKDTLMISRTPEVTCVVVDVSHEDPEVKFNWYVDGVEVHNAKTKPREEQYNSTYRVVSVLTVLHQDWLNGKEYKCKVSNKALGAPIEKTISKAKGQPREPQVYTLPPCREEMTKNQVSLWCLVKGFYPSDIAVEWESNGQPENNYKTTPPVLDSDGSFFLYSKLTVDKSRWQQGNVFSCSVMHEALHNHYTQKSLSLSPGK
chain: EVQLVETGGGLIQPGGSLRLSCAASGFTVSDNYMTWVRQAPGKGLEWVSVIFSGGNTYYADSVKGRFTISRDNAKNTLYLQMNSLRAEDTALYYCARRNYDDTRGTDVFDIWGQGTMVTVSSRTGGGGSGGGGSGGGGSKLEVQLVETGGGLIQPGGSLRLSCAASGFTVSDNYMTWVRQAPGKGLEWVSVIFSGGNTYYADSVKGRFTISRDNAKNTLYLQMNSLRAEDTALYYCARRNYDDTRGTDVFDIWGQGTMVTVSSASEPKSSDKTHTCPPCPAPEAAGGPSVFLFPPKPKDTLMISRTPEVTCVVVDVSHEDPEVKFNWYVDGVEVHNAKTKPREEQYNSTYRVVSVLTVLHQDWLNGKEYKCKVSNKALGAPIEKTISKAKGQPREPQVCTLPPSREEMTKNQVSLSCAVKGFYPSDIAVEWESNGQPENNYKTTPPVLDSDGSFFLVSKLTVDKSRWQQGNVFSCSVMHEALHNHYTQKSLSLSPGK
B2: PR002895 (bispecific antibody, human IgG1, lambda, L234A L235A)
light: B1 light
heavy: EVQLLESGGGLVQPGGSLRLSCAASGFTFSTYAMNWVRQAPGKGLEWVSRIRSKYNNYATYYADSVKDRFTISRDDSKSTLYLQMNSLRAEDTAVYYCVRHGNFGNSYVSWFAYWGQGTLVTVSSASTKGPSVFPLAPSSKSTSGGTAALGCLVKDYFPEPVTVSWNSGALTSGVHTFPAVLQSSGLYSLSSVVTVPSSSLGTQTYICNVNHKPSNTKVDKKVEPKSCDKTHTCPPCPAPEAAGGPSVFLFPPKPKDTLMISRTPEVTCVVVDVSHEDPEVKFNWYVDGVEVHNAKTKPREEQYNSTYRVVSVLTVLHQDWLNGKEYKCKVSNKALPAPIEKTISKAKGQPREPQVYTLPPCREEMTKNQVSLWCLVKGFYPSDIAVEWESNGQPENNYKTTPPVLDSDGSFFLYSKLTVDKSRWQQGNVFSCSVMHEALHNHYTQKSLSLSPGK
chain: EVQLVETGGGLIQPGGSLRLSCAASGFTVSDNYMTWVRQAPGKGLEWVSVIFSGGNTYYADSVKGRFTISRDNAKNTLYLQMNSLRAEDTALYYCARRNYDDTRGTDVFDIWGQGTMVTVSSGGGGSGGGGSGGGGSEVQLVETGGGLIQPGGSLRLSCAASGFTVSDNYMTWVRQAPGKGLEWVSVIFSGGNTYYADSVKGRFTISRDNAKNTLYLQMNSLRAEDTALYYCARRNYDDTRGTDVFDIWGQGTMVTVSSASEPKSSDKTHTCPPCPAPEAAGGPSVFLFPPKPKDTLMISRTPEVTCVVVDVSHEDPEVKFNWYVDGVEVHNAKTKPREEQYNSTYRVVSVLTVLHQDWLNGKEYKCKVSNKALPAPIEKTISKAKGQPREPQVCTLPPSREEMTKNQVSLSCAVKGFYPSDIAVEWESNGQPENNYKTTPPVLDSDGSFFLVSKLTVDKSRWQQGNVFSCSVMHEALHNHYTQKSLSLSPGK
B3: PR003178 (bispecific antibody, human IgG1, lambda, L234A L235A)
light: B1 light
heavy: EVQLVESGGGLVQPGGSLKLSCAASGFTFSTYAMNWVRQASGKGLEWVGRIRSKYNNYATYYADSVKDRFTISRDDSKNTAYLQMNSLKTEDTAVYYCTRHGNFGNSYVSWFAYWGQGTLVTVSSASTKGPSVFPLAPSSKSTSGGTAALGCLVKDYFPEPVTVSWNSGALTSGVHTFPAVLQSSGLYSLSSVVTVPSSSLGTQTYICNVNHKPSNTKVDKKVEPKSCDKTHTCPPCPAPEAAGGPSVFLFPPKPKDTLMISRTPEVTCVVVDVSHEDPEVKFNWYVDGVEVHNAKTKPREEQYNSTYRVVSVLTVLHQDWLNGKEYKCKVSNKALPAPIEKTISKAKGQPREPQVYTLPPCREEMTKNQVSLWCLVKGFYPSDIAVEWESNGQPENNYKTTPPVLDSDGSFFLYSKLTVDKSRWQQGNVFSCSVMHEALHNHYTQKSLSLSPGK
chain: B2 chain
B4: PR002953 (bispecific antibody, human IgG1, lambda, L234A L235A)
light: B1 light
heavy: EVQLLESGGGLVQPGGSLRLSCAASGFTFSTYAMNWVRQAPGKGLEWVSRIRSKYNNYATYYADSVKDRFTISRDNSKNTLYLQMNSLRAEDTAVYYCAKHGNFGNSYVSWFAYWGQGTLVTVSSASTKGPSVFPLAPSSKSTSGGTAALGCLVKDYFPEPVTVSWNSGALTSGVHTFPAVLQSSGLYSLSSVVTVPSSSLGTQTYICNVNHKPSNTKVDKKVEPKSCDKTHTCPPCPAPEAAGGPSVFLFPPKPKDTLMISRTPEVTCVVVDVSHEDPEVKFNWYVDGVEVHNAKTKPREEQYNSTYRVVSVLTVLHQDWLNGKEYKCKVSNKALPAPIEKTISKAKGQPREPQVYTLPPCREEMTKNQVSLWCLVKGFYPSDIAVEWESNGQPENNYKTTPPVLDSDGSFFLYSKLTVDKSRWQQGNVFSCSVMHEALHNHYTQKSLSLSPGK
chain: B2 chain
B5: PR000403 (bispecific antibody, human IgG1, kappa, L234A L235A)
chain 1: EVQLVESGGGLVQPGGSLRLSCAASGFTFSSYWMSWVRQAPGKGLEWVANIKQEGSEKYYVDSVKGRFTISRDNAKNSLYLQMNSLRAEDTAVYYCARDRAVAGAFDIWGQGTMVTVSSASTKGPSVFPLAPSSKSTSGGTAALGCLVKDYFPEPVTVSWNSGALTSGVHTFPAVLQSSGLYSLSSVVTVPSSSLGTQTYICNVNHKPSNTKVDKKVEPKSC
chain 2: DIQMTQSPSTLSASVGDRVTVTCRASQSIYIWLAWYQQKPGKAPNLLIYKASSLETGVPSRFSGSGSGTEFTLTISSLQPDDFATYYCQQYYGSSRTFGQGTKVEIKRTVAAPSVFIFPPSDEQLKSGTASVVCLLNNFYPREAKVQWKVDNALQSGNSQESVTEQDSKDSTYSLSSTLTLSKADYEKHKVYACEVTHQGLSSPVTKSFNRGECEVQLVESGGGLIQPGGSLRLSCAVSGFTVSKNYMSWVRQAPGKGLEWVSVVYSGGSKTYADSVKGRFTISRDNSKNTLYLQMNSLRAEDTAVYYCARAVPHSPSSFDIWGQGTMVTVSSEPKSCDKTHTCPPCPAPEAAGGPSVFLFPPKPKDTLMISRTPEVTCVVVDVSHEDPEVKFNWYVDGVEVHNAKTKPREEQYNSTYRVVSVLTVLHQDWLNGKEYKCKVSNKALGAPIEKTISKAKGQPREPQVYTLPPSREEMTKNQVSLTCLVKGFYPSDIAVEWESNGQPENNYKTTPPVLDSDGSFFLYSKLTVDKSRWQQGNVFSCSVMHEALHNHYTQKSLSLSPGK
notes: PD-L1×CTLA4, structure 1 Fab(CL)-VH-Fc
B6: PR002199 (bispecific antibody, human IgG1, kappa, L234A L235A)
chain 1: not shown
chain 2: EVQLVESGGGLVQPGRSLRLSCAASGFTFDDYAMHWVRQAPGKGLEWVSGISWNSGSIGYADSVKGRFTISRDNAKNSLYLQMNSLRAEDTALYYCAKDSRGYGDYRLGGAYWGQGTLVTVSSASTKGPSVFPLAPSSKSTSGGTAALGCLVKDYFPEPVTVSWNSGALTSGVHTFPAVLQSSGLYSLSSVVTVPSSSLGTQTYICNVNHKPSNTKVDKKVEPKSCDKTHTCPPCPAPEAAGGPSVFLFPPKPKDTLMISRTPEVTCVVVDVSHEDPEVKFNWYVDGVEVHNAKTKPREEQYNSTYRVVSVLTVLHQDWLNGKEYKCKVSNKALGAPIEKTISKAKGQPREPQVYTLPPCREEMTKNQVSLWCLVKGFYPSDIAVEWESNGQPENNYKTTPPVLDSDGSFFLYSKLTVDKSRWQQGNVFSCSVMHEALHNHYTQKSLSLSPGK
chain 3: EVQLLESGGGLVQPGGSLRLSCAASGFTVSSYGMSWVRQAPGKGPEWVSGIRGSDGSTYYADSVKGRFTISRDNSKNTLYLQMNSLRAEDTAVYYCAKQGENDGPFDHRGQGTLVTVSSGGGGSEVQLLESGGGLVQPGGSLRLSCAASGFTVSSYGMSWVRQAPGKGPEWVSGIRGSDGSTYYADSVKGRFTISRDNSKNTLYLQMNSLRAEDTAVYYCAKQGENDGPFDHRGQGTLVTVSSASEPKSSDKTHTCPPCPAPEAAGGPSVFLFPPKPKDTLMISRTPEVTCVVVDVSHEDPEVKFNWYVDGVEVHNAKTKPREEQYNSTYRVVSVLTVLHQDWLNGKEYKCKVSNKALGAPIEKTISKAKGQPREPQVCTLPPSREEMTKNQVSLSCAVKGFYPSDIAVEWESNGQPENNYKTTPPVLDSDGSFFLVSKLTVDKSRWQQGNVFSCSVMHEALHNHYTQKSLSLSPGK
notes: also called Positive control 2
B7: PR000070, anti-PD-L1 91G3H5H3, hIgG1(N297A) (antibody, V domains shown)
VH: EVQLVESGGGLVQPGGSLRLSCAASGFTFSSYWMSWVRQAPGKGLEWVANIKQDGSEKYYVDSVKGRFTISRDNAKNSLYLQMNSLRAEDTAVYYCARDRAVAGAFDIWGQGTMVTVSS
VL: DIQMTQSPSTLSASVGDRVTVTCRASQSIYIWLAWYQQKPGKAPNLLIYKASSLETGVPSRFSGSGSGTEFTLTISSLQPDDFATYYCQQYYGSSRTFGQGTKVEIKR

Key:
human BCMA [1] = molecular target: T1, human BCMA; test: FACS on NCI-H929 cells
human BCMA [2] = molecular target: T1, human BCMA; test: FACS on HEK293T/hBCMA cells, Experiment 2
human BCMA [3] = molecular target: T1, human BCMA; test: FACS on HEK293T/hBCMA cells, Experiment 3
cynomolgus monkey BCMA = molecular target: T2, cynomolgus monkey BCMA (cynomolgus monkey, UniProt A0A2K5UD97 1-183); test: FACS on HEK293T/cyno BCMA cells
T2 construct: whole, on cells; also called cyno BCMA
T2 sequence (A0A2K5UD97 entry or part of it): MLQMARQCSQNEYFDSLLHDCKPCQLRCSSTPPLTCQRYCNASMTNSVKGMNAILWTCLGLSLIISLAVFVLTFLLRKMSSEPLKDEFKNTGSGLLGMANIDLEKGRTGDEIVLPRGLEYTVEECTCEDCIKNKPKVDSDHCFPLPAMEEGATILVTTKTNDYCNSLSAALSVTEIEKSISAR

[4] = molecular target: T3, human CTLA4 on cells (CHO-K1/hCTLA4; HEK293/hCTLA4; 293F-hCTLA4) (human, UniProt P16410 36-223); test: FACS, HEK293/hCTLA4 cells
T3 construct: whole, on cells
T3 sequence (P16410 36-223): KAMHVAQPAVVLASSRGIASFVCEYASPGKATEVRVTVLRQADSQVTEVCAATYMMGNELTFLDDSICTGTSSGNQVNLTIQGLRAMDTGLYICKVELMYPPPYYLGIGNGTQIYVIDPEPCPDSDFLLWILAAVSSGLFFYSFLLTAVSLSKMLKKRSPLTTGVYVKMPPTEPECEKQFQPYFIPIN

[5] = molecular target: T3, human CTLA4 on cells (CHO-K1/hCTLA4; …); test: FACS, CHO-K1/hCTLA4 cells (Test 2)
[6] = molecular target: T4, human PD-L1 on cells (CHO-K1/hPDL1; MDA-MB-231) (human, UniProt Q9NZQ7 19-290); test: FACS, CHO-K1/hPDL1 cells (Experiment 2)
T4 construct: whole, on cells
T4 sequence (Q9NZQ7 19-290): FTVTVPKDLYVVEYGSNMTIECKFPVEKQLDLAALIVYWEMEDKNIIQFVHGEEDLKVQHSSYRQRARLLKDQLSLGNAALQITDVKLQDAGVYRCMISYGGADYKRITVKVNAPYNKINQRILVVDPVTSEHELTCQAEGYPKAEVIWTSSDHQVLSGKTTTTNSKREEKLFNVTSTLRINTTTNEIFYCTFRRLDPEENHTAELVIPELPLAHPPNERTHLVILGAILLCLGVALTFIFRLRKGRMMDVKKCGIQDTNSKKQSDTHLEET

[7] = molecular target: T4, human PD-L1 on cells (CHO-K1/hPDL1; …); test: competition FACS: biotinylated PD-1 to CHO-K1/hPDL1 cells (Experiment 2)
[8] = molecular target: T5, human PD-L1-His protein (ACRO Biosystems, #PD1-H5229) (human, UniProt Q9NZQ7 19-238); test: ELISA, coated hPD-L1-His
T5 construct: extracellular domain; bought; also called hPDL1-His; human PD-L1 extracellular domain recombinant protein
T5 sequence (Q9NZQ7 19-238): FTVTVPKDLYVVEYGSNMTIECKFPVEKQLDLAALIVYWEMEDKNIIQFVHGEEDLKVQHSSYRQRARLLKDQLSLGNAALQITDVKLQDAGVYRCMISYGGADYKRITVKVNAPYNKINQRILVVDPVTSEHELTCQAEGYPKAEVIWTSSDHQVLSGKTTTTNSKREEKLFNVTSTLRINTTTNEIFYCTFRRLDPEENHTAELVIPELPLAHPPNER

[9] = molecular target: T4, human PD-L1 on cells (CHO-K1/hPDL1; …); test: FACS, CHO-K1/hPDL1 cells (Experiment 1)
[10] = molecular target: T4, human PD-L1 on cells (CHO-K1/hPDL1; …); test: competition FACS: biotinylated PD-1 to CHO-K1/hPDL1 cells (Experiment 1)

Binder | EC50 (human BCMA [1]) | EC50 (human BCMA [2]) [nM] | Maximum MFI (human BCMA [2]) | EC50 (human BCMA [3]) [nM] | Maximum MFI (human BCMA [3]) | other results
B1 | 1.73 nM and 1.34 nM | 0.355 | 15000 | 0.259 | 100000 | –
B2 | 1.53 nM and 2.01 nM | 0.385 | 14000 | 0.183 | 93200 | –
B3 | 1.23 nM | – | – | 0.188 | 99300 | Maximum MFI (human BCMA [1]): 15600; Maximum MFI (cynomolgus monkey BCMA): 115000
B4 | 1.34 nM and 2.91 nM | – | 25200 | 0.226 | 91600 | –
B5 | – | – | – | – | – | EC50 [4]: 16.3 nM; Maximum MFI [4]: 1410 MFI; EC50 [5]: 20.5 nM; Maximum MFI [5]: 343 MFI; EC50 [6]: 0.73 nM; Maximum MFI [6]: 8090 MFI; IC50 [7]: 0.42 nM; Maximum inhibition rate (%) [7]: 81.4%
B6 | 4.29 nM | 1.13 | 17000 | 0.602 | 117000 | Maximum MFI (human BCMA [1]): 88200
B7 | – | – | – | – | – | EC50 [8]: 0.146 nM; Maximum OD450 [8]: 3.45 OD450; EC50 [9]: 0.747 nM; Maximum MFI [9]: 22700 MFI; IC50 [10]: 0.725 nM; Maximum inhibition rate (%) [10]: 96.8%

— patent US20230322953A1 (HARBOUR BIOMED SHANGHAI, published 2023)
